The record followed here is the supplement of paper PMC5998384.

Series [1] concerns HeLa Kyoto. Nature of the series: solubility in G1/S (NP-40 vs SDS abundance) (log2 ratio); higher = more soluble. The conditions noted are these: cell cycle stage: G1/S.
Series [2] relates to HeLa Kyoto. Nature of the series: melting temperature (median over replicates), in situ; higher = more thermally stable.
Series [3] has as its system HeLa Kyoto. Nature of the series: solubility change mitosis vs G1/S (difference of NP-40 vs SDS log2 ratios) (log2 ratio difference); higher = more soluble in mitosis.
Series [4] concerns HeLa Kyoto. Put plainly: thermal stability score vs G1/S (z-score of summed log2 fold changes over temperatures); higher = more thermally stable than in G1/S.
The mark [5] stands for this setting: cell cycle stage: early G1 (4.5 h after nocodazole release).
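For melting temperature (median over replicates), in situ in this document: HeLa Kyoto cells synchronized by double thymidine or nocodazole block, proteins quantified by TMT10plex mass spectrometry, three independent biological replicates.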
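For solubility change mitosis vs G1/S (difference of NP-40 vs SDS log2 ratios) in this document: synchronized HeLa Kyoto cells (double thymidine block for G1/S, nocodazole release for mitosis), protein amounts in NP-40 versus SDS lysates quantified by mass spectrometry, three biological replicates.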
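For solubility in G1/S (NP-40 vs SDS abundance) in this document: HeLa Kyoto cells arrested at G1/S by double thymidine block, proteins quantified by TMT10plex mass spectrometry in mild NP-40 versus SDS extracts, three biological replicates.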
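For thermal stability score vs G1/S (z-score of summed log2 fold changes over temperatures) in this document: synchronized HeLa Kyoto cells, proteins quantified by TMT10plex mass spectrometry, three biological replicates, mitosis taken 0.5 h after nocodazole release, G1/S directly after double thymidine block.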

As to “MRMSVGLSLLLPLSGRTFLLLLSVVMAQSHWPSEPSEAVRDWENQLEASMHSVLSDLHEAVPTVVGIPDGTAVVGRSFRVTIPTDLIASSGDIIKVSAAGKEALPSWLHWDSQSHTLEGLPLDTDKGVHYISVSATRLGANGSHIPQTSSVFSIEVYPEDHSELQSVRTASPDPGEVVSSACAADEPVTVLTVILDADLTKMTPKQRIDLLHRMRSFSEVELHNMKLVPVVNNRLFDMSAFMAGPGNAKKVVENGALLSWKLGCSLNQNSVPDIHGVEAPAREGAMSAQLGYPVVGWHIANKKPPLPKRVRRQIHATPTPVTAIGPPTTAIQEPPSRIVPTPTSPAIAPPTETMAPPVRDPVPGKPTVTIRTRGAIIQTPTLGPIQPTRVSEAGTTVPGQIRPTMTIPGYVEPTAVATPPTTTTKKPRVSTPKPATPSTDSTTTTTRRPTKKPRTPRPVPRVTTKVSITRLETASPPTRIRTTTSGVPRGGEPNQRPELKNHIDRVDAWVGTYFEVKIPSDTFYDHEDTTTDKLKLTLKLREQQLVGEKSWVQFNSNSQLMYGLPDSSHVGKHEYFMHATDKGGLSAVDAFEIHVHRRPQGDRAPARFKAKFVGDPALVLNDIHKKIALVKKLAFAFGDRNCSTITLQNITRGSIVVEWTNNTLPLEPCPKEQIAGLSRRIAEDDGKPRPAFSNALEPDFKATSITVTGSGSCRHLQFIPVVPPRRVPSEAPPTEVPDRDPEKSSEDDVYLHTVIPAVVVAAILLIAGIIAMICYRKKRKGKLTLEDQATFIKKGVPIIFADELDDSKPPPSSSMPLILQEEKAPLPPPEYPNQSVPETTPLNQDTMGEYTPLRDEDPNAPPYQPPPPFTAPMEGKGSRPKNMTPYRSPPPYVPP [DAG1]”, in the series on HeLa Kyoto [1], the “solubility in G1/S (log2)” value is -0.103. Moreover, the values for the melting temperature in the series with HeLa Kyoto [2] (cell cycle stage: G1/S) and in the series with HeLa Kyoto [2] (cell cycle stage: mitosis) were 54.1 °C and 54.9 °C, respectively. In the series with HeLa Kyoto [3], the “solubility change mitosis (log2)” value was found to be 0.19. The thermal stability score in the series with HeLa Kyoto [4] (setting [5]) is -2.43; in the series with HeLa Kyoto [4] (cell cycle stage: mitosis), -3.27.

Turning to “MRPGTGAERGGLMVSEMESHPPSQGPGDGERRLSGSSLCSGSWVSADGFLRRRPSMGHPGMHYAPMGMHPMGQRANMPPVPHGMMPQMMPPMGGPPMGQMPGMMSSVMPGMMMSHMSQASMQPALPPGVNSMDVAAGTASGAKSMWTEHKSPDGRTYYYNTETKQSTWEKPDDLKTPAEQLLSKCPWKEYKSDSGKPYYYNSQTKESRWAKPKELEDLEGYQNTIVAGSLITKSNLHAMIKAEESSKQEECTTTSTAPVPTTEIPTTMSTMAAAEAAAAVVAAAAAAAAAAAAANANASTSASNTVSGTVPVVPEPEVTSIVATVVDNENTVTISTEEQAQLTSTPAIQDQSVEVSSNTGEETSKQETVADFTPKKEEEESQPAKKTYTWNTKEEAKQAFKELLKEKRVPSNASWEQAMKMIINDPRYSALAKLSEKKQAFNAYKVQTEKEEKEEARSKYKEAKESFQRFLENHEKMTSTTRYKKAEQMFGEMEVWNAISERDRLEIYEDVLFFLSKKEKEQAKQLRKRNWEALKNILDNMANVTYSTTWSEAQQYLMDNPTFAEDEELQNMDKEDALICFEEHIRALEKEEEEEKQKSLLRERRRQRKNRESFQIFLDELHEHGQLHSMSSWMELYPTISSDIRFTNMLGQPGSTALDLFKFYVEDLKARYHDEKKIIKDILKDKGFVVEVNTTFEDFVAIISSTKRSTTLDAGNIKLAFNSLLEKAEAREREREKEEARKMKRKESAFKSMLKQAAPPIELDAVWEDIRERFVKEPAFEDITLESERKRIFKDFMHVLEHECQHHHSKNKKHSKKSKKHHRKRSRSRSGSDSDDDDSHSKKKRQRSESRSASEHSSSAESERSYKKSKKHKKKSKKRRHKSDSPESDAEREKDKKEKDRESEKDRTRQRSESKHKSPKKKTGKDSGNWDTSGSELSEGELEKRRRTLLEQLDDDQ [PRPF40A]”, in the series on HeLa Kyoto [1], the “solubility in G1/S (log2)” value was -1.2. The melting temperature was 47.1 °C in the series with HeLa Kyoto [2] (cell cycle stage: G1/S) and 48.8 °C in the series on HeLa Kyoto [2] (cell cycle stage: mitosis). In addition, the “solubility change mitosis (log2)” value in the series on HeLa Kyoto [3] was 0.633. The thermal stability score was found to be 1.36 in the series with HeLa Kyoto [4] (setting [5]) and 6.53 in the series with HeLa Kyoto [4] (cell cycle stage: mitosis).

Take “MRPLTEEETRVMFEKIAKYIGENLQLLVDRPDGTYCFRLHNDRVYYVSEKIMKLAANISGDKLVSLGTCFGKFTKTHKFRLHVTALDYLAPYAKYKVWIKPGAEQSFLYGNHVLKSGLGRITENTSQYQGVVVYSMADIPLGFGVAAKSTQDCRKVDPMAIVVFHQADIGEYVRHEETLT [NIP7]”: the “solubility in G1/S (log2)” value with HeLa Kyoto [1] was -1.97. Also, the values for the melting temperature with HeLa Kyoto [2] (cell cycle stage: G1/S) and in the series with HeLa Kyoto [2] (cell cycle stage: mitosis) were 55.5 °C and 53.8 °C, respectively. Besides, the “solubility change mitosis (log2)” value in the series on HeLa Kyoto [3] is 0.622. Further, the thermal stability score in the series on HeLa Kyoto [4] (setting [5]) is -2; with HeLa Kyoto [4] (cell cycle stage: mitosis) it was -2.49.

As to “MRQKRKGDLSPAELMMLTIGDVIKQLIEAHEQGKDIDLNKVKTKTAAKYGLSAQPRLVDIIAAVPPQYRKVLMPKLKAKPIRTASGIAVVAVMCKPHRCPHISFTGNICVYCPGGPDSDFEYSTQSYTGYEPTSMRAIRARYDPFLQTRHRIEQLKQLGHSVDKVEFIVMGGTFMALPEEYRDYFIRNLHDALSGHTSNNIYEAVKYSERSLTKCIGITIETRPDYCMKRHLSDMLTYGCTRLEIGVQSVYEDVARDTNRGHTVKAVCESFHLAKDSGFKVVAHMMPDLPNVGLERDIEQFTEFFENPAFRPDGLKLYPTLVIRGTGLYELWKSGRYKSYSPSDLVELVARILALVPPWTRVYRVQRDIPMPLVSSGVEHGNLRELALARMKDLGIQCRDVRTREVGIQEIHHKVRPYQVELVRRDYVANGGWETFLSYEDPDQDILIGLLRLRKCSEETFRFELGGGVSIVRELHVYGSVVPVSSRDPTKFQHQGFGMLLMEEAERIAREEHGSGKIAVISGVGTRNYYRKIGYRLQGPYMVKMLK [ELP3]”, in the series with HeLa Kyoto [1], the “solubility in G1/S (log2)” value was -0.062. Besides, the melting temperature with HeLa Kyoto [2] (cell cycle stage: G1/S) stood at 51.9 °C; in the series with HeLa Kyoto [2] (cell cycle stage: mitosis) it was 51.4 °C. Besides, the “solubility change mitosis (log2)” value in the series on HeLa Kyoto [3] was -0.0597. In addition, the thermal stability score is 0.13 in the series with HeLa Kyoto [4] (setting [5]) and -1.12 with HeLa Kyoto [4] (cell cycle stage: mitosis).

Consider “MRRAALRLCALGKGQLTPGRGLTQGPQNPKKQGIFHIHEVRDKLREIVGASTNWRDHVKAMEERKLLHSFLAKSQDGLPPRRMKDSYIEVLLPLGSEPELREKYLTVQNTVRFGRILEDLDSLGVLICYMHNKIHSAKMSPLSIVTALVDKIDMCKKSLSPEQDIKFSGHVSWVGKTSMEVKMQMFQLHGDEFCPVLDATFVMVARDSENKGPAFVNPLIPESPEEEELFRQGELNKGRRIAFSSTSLLKMAPSAEERTTIHEMFLSTLDPKTISFRSRVLPSNAVWMENSKLKSLEICHPQERNIFNRIFGGFLMRKAYELAWATACSFGGSRPFVVAVDDIMFQKPVEVGSLLFLSSQVCFTQNNYIQVRVHSEVASLQEKQHTTTNVFHFTFMSEKEVPLVFPKTYGESMLYLDGQRHFNSMSGPATLRKDYLVEP [ACOT9]”, for which the “solubility in G1/S (log2)” value in the series on HeLa Kyoto [1] was -0.111. In addition, the melting temperature in the series on HeLa Kyoto [2] (cell cycle stage: G1/S) worked out at 52.9 °C; in the series on HeLa Kyoto [2] (cell cycle stage: mitosis) it was 53.7 °C. Further, in the series with HeLa Kyoto [3], the “solubility change mitosis (log2)” value was -0.0152. Also, the thermal stability score in the series with HeLa Kyoto [4] (setting [5]) is -1.25; in the series on HeLa Kyoto [4] (cell cycle stage: mitosis) it was 1.48.
